# Reference: the supplement of paper PMC7125110
# ± gives the standard error. For some assays here: This sample holds only a part of the variants without activity.
# B1: glmS ribozyme (parent)
# chain: AUAAAAGCGCCAGAACUACAGAAAUGUAGUUGACGAGGAGGAGGUUUAUCGAAUUUUCGGCGGAUGCCUCCAAA
# Key:
# Settings in all cases: with glucosamine-6-phosphate
# [1] = variants of: B1; assay: kcat; higher = faster cleavage; RNA array
# In short: (§1)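 In situ transcription by E. coli RNA polymerase produced barcoded ribozyme variants on sequenced MiSeq chips, and a hybridised Cy3 probe tracked them at 37 °C. Glucosamine-6-phosphate was flowed in at 40 μM to 10 mM in HEPES/KCl/Mg(OAc)2 buffer. kcat and KM were taken from weighted Michaelis–Menten fits of kobs values from exponential decay fits.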
# [2] = variants of: B1; assay: KM; higher = weaker cofactor use; RNA array
# In short: as §1
# [3] = variants of: B1; assay: self-cleavage kobs at 40 uM GlcN6P; higher = faster cleavage; RNA array
# In short: as §1
# [4] = variants of: B1; assay: self-cleavage kobs at 10000 uM GlcN6P; higher = faster cleavage; RNA array
# In short: as §1
# [5] = variants of: B1; assay: self-cleavage kobs at 2500 uM GlcN6P; higher = faster cleavage; RNA array
# In short: as §1
# [6] = variants of: B1; assay: self-cleavage kobs at 160 uM GlcN6P; higher = faster cleavage; RNA array
# In short: as §1
# [7] = variants of: B1; assay: self-cleavage kobs at 640 uM GlcN6P; higher = faster cleavage; RNA array
# In short: as §1
Variant,kcat [1] [s⁻¹],KM [2] [µM],self-cleavage kobs at 40 uM GlcN6P [3] [s⁻¹],self-cleavage kobs at 10000 uM GlcN6P [4] [s⁻¹],self-cleavage kobs at 2500 uM GlcN6P [5] [s⁻¹],self-cleavage kobs at 160 uM GlcN6P [6] [s⁻¹],self-cleavage kobs at 640 uM GlcN6P [7] [s⁻¹]
AUAAAAGCGCCAUAACUACAGAAAUGUAGUUGACGAGGAGGAGGUUUAUCGAAUUUUCGGCGGAUGCAUCCAAA [G13U C68A],1.31e-05 ± 2e-06,–,–,–,–,–,–
AUAAAAGCGCCAUAACUACAGAAAUGUAGUUGACGAGGAGGAGGUUUAUCGAAUUUUCGGCGGAUGCAUGCAAA [G13U C68A C70G],2.66e-05 ± 2.1e-06,139 ± 65,< 1e-05,< 1e-05,–,–,–
AUAAAAGCGCCACAACUACAGAAAUGUAGUUGACGAGGAGGAGGGUUAUCGAAUUUUCGGCGGAUGCCUCCAAA [G13C U45G],3.74e-05 ± 3.6e-06,–,< 1e-05,3.22e-05 ± 1.2e-05,–,–,–
AUAAAAGCGCCAUACCUACAGAAAUGUAGUUGACGAGGAGGAGGUUUAUCGAACUUUCGGCGGAUGCCUCCAAA [G13U A15C U54C],0.000132 ± 1.2e-05,–,–,0.000122 ± 1.9e-05,0.00013 ± 3.3e-05,–,–
AUAAAAGCGCCAUAACUACAGAAAUGUAGUUGACGAGGAGGAGGUUUAUCGUAUUUUCGGCGGAUGCCUCCAAA [G13U A52U],1.58e-05 ± 2.6e-06,–,< 1e-05,–,–,< 1e-05,–
AUAAAAGCGCCAUAUCUACAGAAAUGUAGUUGACGAGGAGGAGGUUUAUCGAAUUUUCGGCGGAUGCCUCCAAA [G13U A15U],0.000299 ± 2e-05,5440 ± 760,–,0.000194 ± 1.9e-05,9.42e-05 ± 1.4e-05,–,–
AUAAAAGCGCCAUAGCUACAGAAAUGUAGUUGACGAGGAGGAGGUUUAUCGAAUUUUCGGCGGAUGCCUCCAAA [G13U A15G],0.00265 ± 0.0011,–,–,0.00191 ± 0.00025,0.000584 ± 0.00014,0.000116 ± 5e-05,0.000388 ± 7.5e-05
AUAAAAGCGCCAUAGCUACAGAAAUGUAGUUAACGAGGAGGAGGUUUAUCGAAUUUUCGGCGGAUGCCUGCAAA [G13U A15G G32A C70G],9.35e-05 ± 2.2e-06,405 ± 40,–,8.98e-05 ± 1.9e-05,8.14e-05 ± 1.6e-05,–,5.48e-05 ± 1.7e-05
AUAAAAGCGCCACAACUACAGAAAUGUAGUUGACGAGGAGGAGGUUGAUCGAAUUUUCGGCGGAUGCCUCCAAA [G13C U47G],3.48e-05 ± 2.1e-06,–,< 1e-05,3.53e-05 ± 8.5e-06,–,–,–
AUAAAAGCGCCACAACUACAGAAAUGUAGUUGACGAGGAGGAGGUUUAUCGAAUUUUCGGCGGAUGCCACCAAA [G13C U69A],2.51e-05 ± 9.3e-06,–,–,–,–,–,4.85e-05 ± 2.3e-05
AUAAAAGCGCCAUAACUACAGAAAUGUAGUUGACGAGGAGGAGGUUUAUCGAAUUUUCGGCGUAUGCCUCCAAA [G13U G63U],< 1e-05,–,< 1e-05,–,–,–,–
